# Test results reported in patent publication US6699481B2, “Peptides for inhibition of herpes simplex virus entry” (priority 1998, dated 2004).
# Bridge positions count the residues as written; N and C are the ends. Ends that are not written are not given here. * marks the point of attachment. Acm = CC(=O)NC*
# T1: HveA (200t) (Homo sapiens, UniProt Q92956)
# T1 sequence (Q92956 39-202 limits assumed): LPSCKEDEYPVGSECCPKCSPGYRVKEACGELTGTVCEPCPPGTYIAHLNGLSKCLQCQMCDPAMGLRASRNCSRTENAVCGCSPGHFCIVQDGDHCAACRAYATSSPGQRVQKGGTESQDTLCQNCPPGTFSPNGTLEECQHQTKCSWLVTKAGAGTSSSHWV
# T2: HveA (200t) (Homo sapiens, UniProt Q92956)
# T2 sequence (Q92956 39-200): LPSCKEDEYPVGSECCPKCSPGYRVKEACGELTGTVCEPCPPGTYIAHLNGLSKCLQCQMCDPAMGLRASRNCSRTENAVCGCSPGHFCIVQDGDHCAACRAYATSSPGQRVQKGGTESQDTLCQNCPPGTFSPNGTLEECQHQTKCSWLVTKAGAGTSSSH
# Experiments:
# HveA (200t) [1] = target: T1, HveA (200t); test: competition ELISA, gD-1(306t) binding with immobilized HveA (200t); conditions: for inhibitory effect upon binding of gD-1 with HveA: FIG. 4C; for inhibition of binding of soluble wild type gD-1(306t) with immobilized HveA (200t): peptide at 0.5 millimolar, FIG. 4A
# Experimental: (§1) Several ELISAs were performed to analyze interaction among HveA, the isolated phage peptides, gD, and LT-α. In these assays, microtiter wells were coated for 2 hours at 22° C. with 40 nanograms of HveA(200t), human factor H, trout complement C3, BSA, milk, or ovalbumin. Nonspecific binding in the wells was blocked using PBS containing 1% (w/v) BSA for 1 hour at 22° C. For competition assays, serial dilutions of gD-1 (306t), gD-1 (Δ290-299t), BSA, peptide BP-1, BP-2, or an unrelated cyclic peptide having the amino acid sequence ICVVQDWGHHRCT (SEQ ID NO:3) was added to each well. After 30 minutes of incubation at 22° C., recombinant protein (i.e., gD-1 (306t) at 0.4 microgram per milliliter, gD-1 (Δ290-299t) at 0.1 microgram per milliliter, or LT-α at 20 nanomolar), or phage supernatant was added to the well, and the samples were incubated for 1 hour. The wells were washed twice with PBS containing 0.05% (v/v) Tween-20 and incubated for one hour at 22° C. with at least one of the following: (i) a 1:1000 dilution of a peroxidase-labeled anti-M13 antibody, (ii) a 1:400 dilution of an anti-gD polyclonal antibody (R7), or (iii) an anti-LT-α monoclonal antibody (AG9).
# (§2) Following incubation with the antibody, the wells were washed twice with PBS containing 0.05% (v/v) Tween-20 and incubated for 30 minutes at 22° C. with a 1:1000 dilution of a peroxidase-conjugated goat anti-rabbit immunoglobulin G (for polyclonal antibody detection) or with goat anti-mouse immunoglobulin G (for monoclonal antibody detection; Bio-Rad Laboratories, Richmond, Calif.). Color was developed by adding 2,2′-azino-di-(3-ethylbenzthiazolinesulfonate) (ABTS, Boehringer-Mannheim, Indianapolis, Ind.) and 0.5% (v/v) hydrogen peroxide. Absorbance was assessed at 405 nanometers. Net gD-1 or LT-α binding was calculated by subtracting the amount of secondary antibody bound with HveA from the amount of ligand bound with HveA.
# [2] = tested on: HSV-1 entry into CHO-HveA cells; test: HSV entry assay, CHO-HveA cells (β-galactosidase reporter virus KOS-hrR3); format: cell-based; conditions: FIG. 7A
# Experimental: (§3) CHO-HveA, CHO-HveC, and Vero cells were plated on 96-well dishes and incubated overnight. The cells were chilled at 4° C. for 10, minutes and then the medium was replaced with Ham's F-12 (CHO-HveA and CHO-HveC cells) or with Dulbecco's modified Eagle medium (DMEM) (Vero cells). These media were supplemented with 10% (v/v) bovine fetal serum and 10 millimolar HEPES, containing various concentrations of peptide, which had been previously filtered through a 0.2 micrometer pore size filter (Corning Glass Works, Corning, N.Y.). The plates were rocked at 4° C. for 90 minutes, at which time KOS-hrR3 virus (5×10^5 PFU/well) was added. The plates were rocked at 4° C. for 90 additional minutes and then incubated at 37° C. for 5 hours. Cells were lysed using 20% (v/v) Nonidet P-40 and β-galactosidase substrate (o-nitrophenyl-β-D-glucopyranoside) was added to each well. β-galactosidase activity was measured at selected time points using a Specromax 250 enzyme-linked immunosorbent assay (ELISA) reader.
# Inhibition of gD-1 binding with HveA mediated by BP-2, as indicated in FIGS. 4A-4C, raised the question of whether this peptide has a blocking effect on viral entry into mammalian cells. To test this possibility, the effect of BP-2 and related peptides (i.e., BP-1, BP-2 (3, 9 Ala), scrambled BP-2, control peptide, and gD-1(Δ290-299t)) on HSV-1 entry into CHO cells expressing either HveA (CHO-HveA cells), or HveC (CHO-HveC cells), and into Vero cells was examined. Cell monolayers were incubated with increasing concentrations of peptide at 4° C. for 90 minutes. Following incubation, the cells were infected with the β-galactosidase reporter virus, KOS-hrR3. The results of these experiments are depicted in FIGS. 7A and 7B.
# [3] = tested on: HSV entry into Vero cells; test: HSV entry assay, Vero cells; format: cell-based, HSV-1; conditions: KOS-hrR3 virus; FIG. 7B
# Experimental: as §3
# (§4) Inhibition of gD-1 binding with HveA mediated by BP-2, as indicated in FIGS. 4A-4C, raised the question of whether this peptide has a blocking effect on viral entry into mammalian cells. […]
# [4] = tested on: HSV entry into CHO-HveC cells; test: HSV entry assay, CHO-HveC cells; format: cell-based, HSV-1; conditions: KOS-hrR3 virus
# Experimental: as §3, §4
# HveA (200t) [5] = target: T1, HveA (200t); test: competition ELISA, binding of phage displaying BP-1 or BP-2 with HveA
# Experimental: as §1, §2
# The results of these experiments are depicted in FIG. 1A.
# HveA (200t) [6] = target: T2, HveA (200t); test: competition ELISA, gD-1 (Δ290-299t) binding with HveA; conditions: FIG. 4B
# Experimental: Several ELISAs were performed to analyze interaction among HveA, the isolated phage peptides, gD, and LT-α. In these assays, microtiter wells were coated for 2 hours at 22° C. with 40 nanograms of HveA(200t), human factor H, trout complement C3, BSA, milk, or ovalbumin. Nonspecific binding in the wells was blocked using PBS containing 1% (w/v) BSA for 1 hour at 22° C. For competition assays, serial dilutions of gD-1 (306t), gD-1 (Δ290-299t), BSA, peptide BP-1, BP-2, or an unrelated cyclic peptide having the amino acid sequence ICVVQDWGHHRCT (SEQ ID NO:3) was added to each well. […]
# as §2, with “Color was developed by adding 2,2′-azino-di-(3-ethylbenzthiazolinesulfonate) (ABTS, Boehringer-Mannheim, Indianapolis, Ind.) and 0.5% (v/v) hydrogen peroxide.” left out
molecule,measurement,setting,value
"BP-1 (4, 10 Acm): linear BP-1 peptide generated by reduction and alkylation of the 26-mer peptide, SEQ ID NO:1 (SISC(Acm)SRGLVC(Acm)LLPRLTNESGNDRFDS)",inhibitory effect upon binding of gD-1 with HveA,HveA (200t) [1],no inhibitory effect
"BP-1: cyclic 26-residue HveA-binding peptide, SEQ ID NO:4, from the 27-mer phage library (SISCSRGLVCLLPRLTNESGNDRFDS; disulfide 4-10 (inferred))",blocking of HSV-1 entry into CHO-HveA cells,[2],neither BP-1 nor any of the BP-2 analogs blocked virus entry
same,effect on HSV entry into Vero cells,[3],Neither BP-1 or BP-2 had any effect
same,effect on HSV entry into CHO-HveC cells,[4],Neither BP-1 or BP-2 had any effect
same,inhibition of binding of soluble wild type gD-1(306t) with immobilized HveA (200t),HveA (200t) [1],20%
same,inhibition of binding of phage displaying BP-2 to HveA,HveA (200t) [5]; FIG. 3A,vice versa
"BP-2 (3, 9 Ala): linear form of BP-2 generated by substitution of the cysteine residues with alanine, SEQ ID NO:2 (GSADGFRVAYMH; Peptide corresponds to BP-2 (3,9 Ala))",inhibitory effect upon binding of gD-1 with HveA,HveA (200t) [1],no inhibitory effect
"BP-2: cyclic 12-residue HveA-binding peptide, SEQ ID NO:5, from the 12-mer phage library (GSCDGFRVCYMH; disulfide 3-9 (inferred))",blocking of HSV-1 entry into CHO-HveA cells,[2],blocked entry
same,effect on HSV entry into Vero cells,[3],Neither BP-1 or BP-2 had any effect
same,inhibition of binding of gD-1 (Δ290-299t) with HveA,HveA (200t) [6],40%
same,effect on HSV entry into CHO-HveC cells,[4],Neither BP-1 or BP-2 had any effect
same,inhibition of binding of soluble wild type gD-1(306t) with immobilized HveA (200t),HveA (200t) [1],80%
same,inhibition of binding of phage displaying BP-1 to HveA,HveA (200t) [5]; FIG. 3B,inhibited
"ICVVQDWGHHRCT [cyclic control peptide, reference compound]",inhibitory effect upon binding of gD-1 with HveA,HveA (200t) [1],no inhibitory effect
"scrambled sequence BP-2: scrambled primary sequence of the parental cyclic BP-2, maintaining the position of the two cysteines, SEQ ID NO:6 (YMCRFVDGCHGS; disulfide 3-9 (inferred))",inhibitory effect upon binding of gD-1 with HveA,HveA (200t) [1],no inhibitory effect
"gD-1 (306t): soluble wild type HSV glycoprotein D, from recombinant baculovirus-infected cells (protein, left off: small tags and cut ends, soluble wild type HSV glycoprotein D, from recombinant baculovirus-infected cells) KYALVDASLKMADPNRFRGKDLPVLDQLTDPPGVRRVYHIQAGLPDPFQPPSLPITVYYAVLERACRSVLLNAPSEAPQIVRGASEDVRKQPYNLTIAWFRMGGNCAIPITVMEYTECSYNKSLGACPIRTQPRWNYYDSFSAVSEDNLGFLMHAPAFETAGTYLRLVKINDWTEITQFILEHRAKGSCKYALPLRIPPSACLSPQAYQQGVTVDSIGMLPRFIPENQRTVAVYSLKIAGWHGPKAPYTSTLLPPELSETPNATQPELAPEDPEDSALLEDPVGTVAPQIPPNWHIPSIQDAATPY",blocking of HSV-1 entry into CHO-HveA cells,[2],failed to do so
same,inhibition of HveA-binding phage clones binding with HveA (200t),"HveA (200t) [5]; fluid-phase soluble competitor, FIG. 1A",significantly inhibited
